Assay results published in the supplement of paper PMC7125110.
± gives the standard error. Fewer inactive variants are shown than the library holds.

B1: glmS ribozyme (parent)
chain: AUAAAAGCGCCAGAACUACAGAAAUGUAGUUGACGAGGAGGAGGUUUAUCGAAUUUUCGGCGGAUGCCUCCAAA

Legend:
Conditions in all cases: with glucosamine-6-phosphate
glucosamine-6-phosphate [1] = variants of: B1; assay: self-cleavage kobs at 40 uM GlcN6P; higher = faster cleavage; RNA array
Procedure, shortened: (§1)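 kobs was derived by fitting per-tile medians to one- or two-exponential decays after normalising signals to baseline and to non-cleaving reference variants. Those signals came from barcoded ribozyme variants transcribed in situ by E. coli RNA polymerase on sequenced MiSeq chips, followed through a hybridised Cy3 probe at 37 °C and imaged over ~14 h. Glucosamine-6-phosphate (40 μM to 10 mM) in HEPES/KCl/Mg(OAc)2 buffer was flowed in. Weighted Michaelis–Menten fits across concentrations then gave kcat and KM.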

glucosamine-6-phosphate [2] = variants of: B1; assay: self-cleavage kobs at 10000 uM GlcN6P; higher = faster cleavage; RNA array
Procedure, shortened: as §1

glucosamine-6-phosphate [3] = variants of: B1; assay: self-cleavage kobs at 160 uM GlcN6P; higher = faster cleavage; RNA array
Procedure, shortened: as §1

glucosamine-6-phosphate [4] = variants of: B1; assay: self-cleavage kobs at 640 uM GlcN6P; higher = faster cleavage; RNA array
Procedure, shortened: as §1

glucosamine-6-phosphate [5] = variants of: B1; assay: self-cleavage kobs at 2500 uM GlcN6P; higher = faster cleavage; RNA array
Procedure, shortened: as §1

Variant	self-cleavage kobs at 40 uM GlcN6P (glucosamine-6-phosphate [1]) [s⁻¹]	self-cleavage kobs at 10000 uM GlcN6P (glucosamine-6-phosphate [2]) [s⁻¹]	self-cleavage kobs at 160 uM GlcN6P (glucosamine-6-phosphate [3]) [s⁻¹]	self-cleavage kobs at 640 uM GlcN6P (glucosamine-6-phosphate [4]) [s⁻¹]	self-cleavage kobs at 2500 uM GlcN6P (glucosamine-6-phosphate [5]) [s⁻¹]
AUAAAAGCGCCAGGUCUACAGAAAUGUAGUCGACGAGGAGGAGGUUUAUCGAAUUUUCGGCGGAUGCCUCCAAA [A14G A15U U31C]	0.000793 ± 0.00021	0.0212 ± 0.0057			
AUAAAAGCGCCAGGACUACAGAAAUGUAGUUGACGAGUAGGAGGUUUAUUGAAUUUUCGGCGGAUGCCUCCAAA [A14G G38U C50U]	< 1e-05				
AUAAAAGCGCCAGGACUACAGAAAUGUAGUUGACGAGGAGGAGGUUUAUCGAAGUUUCGGCGGAUGCCUCCAAA [A14G U54G]	0.00166 ± 0.00021	0.023 ± 0.0048	0.0021 ± 0.00047	0.0114 ± 0.003	
AUAAAAGCGCCAGCACUACAGAAAUGUAGUUGACGAGGAGGAGCUUUAUUGAAUUUUCGGCGGAGGCCUCCAAA [A14C G44C C50U U65G]	< 1e-05				
AUAAAAGCGCCAGGACUACAGAAAUGUAGUUGACGAGGAGGAGGUUUAUUGAAUUUUCGGCGGAUUCAUCCAAA [A14G C50U G66U C68A]	5.56e-05 ± 2.7e-05	4.35e-05 ± 1.8e-05			
AUAAAAGCGCCAGGACUACAGAAAUGUAGUUGACGAGGAGGAGGUUUCUCGAAUUUUCGGCGGAUGCAUCCAAA [A14G A48C C68A]	< 1e-05	< 1e-05	< 1e-05		
AUAAAAGCGCCAGGACUACAGAAAUGUAGUUGACGAGGAGGAGGUUUAUCGAAUUUUCGGCGGAUGACUCCAAA [A14G C67A]	0.000654 ± 7e-05	0.0413 ± 0.01	0.00108 ± 0.00017	0.00492 ± 0.00077	0.00642 ± 0.0014
AUAAAAGCGCCAGGACUACAGAAAUGUAGUUGACGAGGAGGAGGUUUAUCGAAUUUUCGGCGGAUGUCUCCAAA [A14G C67U]	0.000746 ± 0.00014		0.00183 ± 0.00033	0.00612 ± 0.00075	0.0171 ± 0.0057
AUAAAAGCGCCAGGCCUACAGAAAUGUAGUUGACGAGGAGGAGGUUUAUCGAAGUUUCGGCGGAUGCCUCCAAA [A14G A15C U54G]	0.000827 ± 0.00016	0.048 ± 0.017			
AUAAAAGCGCCAGCACUACAGAAAUGUAGUUGACGAGGAGGAGGUUUAACGAAUUUUCGGCGGAUGCCUCCAAA [A14C U49A]	< 1e-05	< 1e-05		< 1e-05	
AUAAAAGCGCCAGGACUACAGAAAUGUAGUAGACGAGGAGGAGGUUUAUCGCAUUUUCGGCGGAUGCCUCCAAA [A14G U31A A52C]	< 1e-05				
AUAAAAGCGCCAGGGCUACAGAAAUGUAGUUGACGAGGAGGAGGUUUAUCGAAUUUUCGGCGGAUUCCUCCAAA [A14G A15G G66U]	0.0002 ± 4.3e-05	0.0089 ± 0.0018			0.00252 ± 0.0011
AUAAAAGCGCCAGGACUACAGAAAUGUAGUGGACGAGGAAGAGGUUUAUCGAAUUUUCGGCGGAUGCCUCAAAA [A14G U31G G40A C71A]	5.41e-05 ± 1.8e-05	0.000822 ± 0.00016			
AUAAAAGCGCCAGCACUACAGAAAUGUAGUUGACGAGGAGAAGGUUUAUGGAAUUUUCUGCGGAUGCCUCCAAA [A14C G41A C50G G59U]	< 1e-05				
AUAAAAGCGCCAGGACUACAGAAAUGUAGUUGACGAGGAGGAGGAUUUUCGAAUUUUCGGCGGAUGCCUCCAAA [A14G U45A A48U]	0.000108 ± 2.6e-05	0.00563 ± 0.001			
AUAAAAGCGCCAGGACUACAGAAAUGUAGUUGACGAGGAGUAGGAUUAUCGAAUUUUCGGCGGAUGCCUUCAAA [A14G G41U U45A C70U]	0.000293 ± 5.4e-05	0.000993 ± 0.00019	0.00043 ± 0.00013	0.000588 ± 0.00015	0.00191 ± 0.00054
AUAAAAGCGCCAGGACUAAGAAAAUGUAGUUGACGAGGAGGAGGUUUAUCGAAUUUUCGACGGAUGCCUCCAAA [A14G C19A A20G G21A G60A]	< 1e-05				
AUAAAAGCGCCAGCACUACAGAAAUGUAGUUGACGAGGAGGAGGUUUAUCGAAAUUUCGGCGGAUGCCUCCAAA [A14C U54A]	0.00014 ± 2.7e-05	0.00985 ± 0.0024		0.00123 ± 0.00021	0.0023 ± 0.0005
AUAAAAGCGCCAGGACUACAGAAAUGUAGUUGACGAAGAGGUGGUUUAUCGAAUUUUCGGCGGAUGCCACCAAA [A14G G37A A42U U69A]	0.000165 ± 2.5e-05	0.0157 ± 0.0032		0.00196 ± 0.00035	
AUAAAAGCGCCAGGACUACAGAAAUGUAGGUGACGAGGAGGAGGUUUAUCGAAUUUUCGGCGGAUGCCUCCAAA [A14G U30G]	0.001 ± 0.00014	0.0807 ± 0.027	0.00212 ± 0.00046	0.00706 ± 0.0011	0.0179 ± 0.0054
AUAAAAGCGCCAGGAAUACAGAAAUGUAGUUGACGAGGAGGAGGUUUAUCGAAGUUUCGGCGGAUGCCUCCAAA [A14G C16A U54G]	0.000211 ± 4.8e-05	0.00361 ± 0.00067			
AUAAAAGCGCCAGCACUACAGAAAUGUAGUUGACGAGGAGGAGGUAUAUCGAAUUUUCAGCGGAUGCGUCCAAA [A14C U46A G59A C68G]	< 1e-05				
AUAAAAGCGCCAGCACUACAGAAAUGUAGUUGACGAGGAGGAGGUUUAUCGAAUUGUCGGCGGAUGCCUCCAAA [A14C U56G]	0.00282 ± 0.00046	0.0693 ± 0.022	0.00922 ± 0.003	0.0201 ± 0.0065	0.00838 ± 0.0029
AUAAAAGCGCCAGGUCUACAGAAAUGUAGUUGACGAGGAGGAGGUUUAUCGAAUUUUCGGCGGAUGCCUCCAAA [A14G A15U]	0.00111 ± 0.00019	0.0592 ± 0.021	0.000722 ± 0.00014	0.00751 ± 0.0013	0.00555 ± 0.0014
AUAAAAGCGCCAGGACUACAGAAAUGUAAUUGACGAGGAGGAGGUUUAUCGAAUUUUCGGCGGAUGCCUCCAAA [A14G G29A]	0.000403 ± 6.2e-05	0.0317 ± 0.0076		0.00394 ± 0.00079	0.00353 ± 0.00081
AUAAAAGCGCCAGCACUACAGAAAUGUAGUUGACUAGGAGGACGUUUAUCGAAUUUUCGGCGGAUGCCUCCAAA [A14C G35U G43C]	< 1e-05				
AUAAAAGCGCCAGGAUUACAGAAAUGUAGUUGACGAAGAGGAGGUUUAUCGAAUUUUCGGCGGAUGGCUGCAAA [A14G C16U G37A C67G C70G]	< 1e-05				< 1e-05
AUAAAAGCGCCAGGACUACAGAAAUGUAGUUGACGAGGAGGAGGUUUAUCGAAUUUUCGGCAGAUGCCUCCAAA [A14G G62A]	< 1e-05				
